Results reported in the supplement of paper PMC12338614.

B1: library; numbered along this chain (parent)
chain: MEVVDPQQLGMFTEGELMSVGMDTFIHRIDSTEVIYQPRRKRAKLIGKYLMGDLLGEGSYGKVKEVLDSETLCRRAVKILKKKKLRRIPNGEANVKKEIQLLRRLRHKNVIQLVDVLYNEEKQKMYMVMEYCVCGMQEMLDSVPEKRFPVCQAHGYFCQLIDGLEYLHSQGIVHKDIKPGNLLLTTGGTLKISDLGVAEALHPFAADDTCRTSQGSPAFQPPEIANGLDTFSGFKVDIWSAGVTLYNITTGLYPFEGDNIYKLFENIGKGSYAIPGDCGPPLSDLLKGMLEYEPAKRFSIRQIRQHSWFRKKHPPAEAPVPIPPSPDTKDRWRSMTVVPYLEDLHGADEDEDLFDIEDDIIYTQDFTVPGQVPEEEASHNGQRRGLPKAVCMNGTEAAQLSTKSRAEGRAPNPARKACSASSKIRRLSACKQQ

Variants of: B1
Assay: STK11 functional score (HeLa growth suppression), rescaled enrichment; synonymous median = 1, nonsense median = 0 (normalised score)
Details: with HeLa; variant type: missense
Procedure, shortened: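 In HeLa, Bxb1 integrated POPCode codon-randomised libraries of codon-optimised STK11 at an AAVS1 landing pad; three regions were each transfected three times. Integrants, marked as BFP-negative and mCherry-positive, were FACS-sorted 4–5 days after electroporation and expanded for about two weeks before tiled gDNA amplicons were sequenced on NextSeq (~2 million reads per tile). Each functional score is a post/pre-selection log ratio corrected to wild type, rescaled to the synonymous and nonsense medians, and merged across codons and replicate transfections, with error estimated by bootstrapping.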

STK11 functional score, by site and new letter:
N393: P 1.59; A 1.59; E 1.48; C 1.54; H 1.51; I 1.39; F 1.52; G 1.36; K 0.96; V 0.689; Y 1.51; M 1.48; D 1.07; L 1.16; T 1.48; R 1.07; S 1.09
T395: Y 1.47; F 0.847; S 0.942; N 1.4; W 1.61; D 1.56; K 0.547; I 0.971; H 1.53; E 1.33; V 1.04; G 1.49; M 1.05; P 1.32; Q 1.5; A 0.877; L 1.23; C 1.61; R 1.58
A398: S 1.16; V 1.01; F 1.12; E 1.55; L 1.16; Y 1.23; I 1.13; C 1.35; T 1.3; W 0.886; G 1.1; K 1.53; M 1.63; D 1.18; N 1.15; R 1.42; Q 1.58
M392: Y 1.04
G394: Y 1.38; A 1.32; H 1.6; I 1.51; C 1.28; M 1.62; W 1.29; S 1.46; R 1.17; K 1.6; L 1.59; N 0.969; F 1.17; V 1.29; P 1.52; E 1.26; Q 1.35; D 1.32
Q399: G 1.51; R 0.852; F 1.27; T 1.29; C 1.23; H 1.13; W 1.43; I 1.05; M 0.653; D 1.39; K 0.826; V 0.994; S 0.903; A 1.11; L 1.31; P 1.35; N 1.39; Y 1.42; E 1.47
L400: R 1.37; K 0.775; Y 1.55; T 1.11; D 1.19; E 1.58; Q 1.27; N 1.63; G 1.48; S 1.07; I 1.55; H 1.42; F 1.46; W 1.56; A 1.64; V 1.41
T402: F 1.18; D 1.21; A 1.42; G 1.13; E 1.59; H 0.157; C 1.33; I 1.25
A397: V 0.799; S 1.26; H 1.64; E 1.44; D 1.32; N 0.679; R 1.46; L 1.27; F 1.35; P 1.18; I 1.51; K 0.947; G 1.14; W 0.847; T 1.51; Y 1.38; C 1.04; M 1.62
S401: M 1.44; G 0.991; L 1.51; D 1.19; K 1.44; V 1.41; R 1.11; A 1.54; F 1.49; I 1.49; W 0.786; C 1.05; T 0.884; H 1.49; P 1.07; N 1.4; E 1.24
E396: H 1.55; T 1.08; N 1.49; D 1.45; G 1.55; R 1.53; M 1.47; V 1.55; C 1.26; I 1.57; Q 1.18; L 1.14; W 1.49; S 1.18; Y 1.23; F 1.41; A 1.29
